Read-outs that look alike come from different tables or passages of the source.
T1: Csm2;Psy3;Shu1;Shu2 (Saccharomyces cerevisiae?;Saccharomyces …, UniProt P40465;Q12318;P38751;P38957 1-213;1-242;1-150;1-223, |||)
T1 sequence 1: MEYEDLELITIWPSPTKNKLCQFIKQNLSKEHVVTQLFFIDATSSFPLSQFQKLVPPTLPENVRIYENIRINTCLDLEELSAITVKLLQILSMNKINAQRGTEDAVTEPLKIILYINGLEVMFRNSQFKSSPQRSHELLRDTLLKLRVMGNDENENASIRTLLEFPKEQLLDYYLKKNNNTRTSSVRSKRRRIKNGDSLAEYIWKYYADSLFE
T1 sequence 2: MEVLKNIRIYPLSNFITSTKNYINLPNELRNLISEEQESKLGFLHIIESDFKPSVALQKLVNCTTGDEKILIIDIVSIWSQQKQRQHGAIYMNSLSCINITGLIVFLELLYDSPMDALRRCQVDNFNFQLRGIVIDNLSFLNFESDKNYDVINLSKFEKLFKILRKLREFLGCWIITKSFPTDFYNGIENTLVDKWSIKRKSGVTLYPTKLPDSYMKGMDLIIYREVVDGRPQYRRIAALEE
T1 sequence 3: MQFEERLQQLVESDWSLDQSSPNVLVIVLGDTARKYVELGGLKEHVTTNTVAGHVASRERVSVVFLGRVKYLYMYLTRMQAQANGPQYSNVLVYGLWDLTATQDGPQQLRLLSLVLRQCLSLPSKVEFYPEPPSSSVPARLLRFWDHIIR
T1 sequence 4: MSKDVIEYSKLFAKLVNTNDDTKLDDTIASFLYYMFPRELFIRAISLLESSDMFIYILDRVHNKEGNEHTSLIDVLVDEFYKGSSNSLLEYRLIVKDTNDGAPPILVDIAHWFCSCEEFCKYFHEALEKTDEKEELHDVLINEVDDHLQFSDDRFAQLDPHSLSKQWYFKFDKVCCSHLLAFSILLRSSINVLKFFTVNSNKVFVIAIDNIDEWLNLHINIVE

T2: Csm2;Psy3 (Saccharomyces cerevisiae?;Saccharomyces …, UniProt P40465;Q12318 1-213;1-242, |)
T2 sequence 1: T1 sequence 1
T2 sequence 2: T1 sequence 2

B1: ss26 (ssDNA)
DNA: ACTGCCCTTACAGCACAGCGGTTTTT
B2: Fork (10nt) (dsDNA)
DNA 1: ACTGCCCTTACAGCACAGCGGTTTTTTTTTT
DNA 2: TTTTTTTTTTCCGCTGTGCTGTAAGGGCAGT
B3: 3'-overhang (10nt) (dsDNA)
DNA 1: B2 DNA 1
DNA 2: CCGCTGTGCTGTAAGGGCAGT
B4: ss31 (ssDNA)
DNA: B2 DNA 1
B5: Fork (20nt) (dsDNA)
DNA 1: TTTTTTTTTTTTTTTTTTTTCTTGACAAGCTTGCGCACT
DNA 2: AGTGCGCAAGCTTGTCAAGGCACTTTTTTTTTTTTTTTT
B6: ds39 (dsDNA)
DNA 1: B5 DNA 1
DNA 2: AGTGCGCAAGCTTGTCAAGAAAAAAAAAAAAAAAAAAAA
B7: 5'-overhang (20nt) (dsDNA)
DNA 1: B5 DNA 1
DNA 2: AGTGCGCAAGCTTGTCAAG
B8: ss39 (ssDNA)
DNA: B5 DNA 1
B9: 3'-overhang (20nt) (dsDNA)
DNA 1: CTTGACAAGCTTGCGCACT
DNA 2: B5 DNA 2
B10: ds21 (dsDNA)
DNA 1: ACTTACAGCACAGCGGTTTTT
DNA 2: AAAAACCGCTGTGCTGTAAGT
B11: ss21 (ssDNA)
DNA: ACTTACAGCACAGCGGTTTTT
B12: ss60 (ssDNA)
DNA: TTTTTTTTTTTTTTTTTTTTTTTTTTTTTTCTTGACAAGCTTGCGCACTTAGGCCTCTAG
B13: Fork (5nt) (dsDNA)
DNA 1: ACTGCCCTTACAGCACAGCGGTTTTT
DNA 2: TTTTTCCGCTGTGCTGTAAGGGCAGT
B14: ds26 (dsDNA)
DNA 1: ACTGCCCTTACAGCACAGCGGTTTTT
DNA 2: AAAAACCGCTGTGCTGTAAGGGCAGT
B15: 3'-overhang (5nt) (dsDNA)
DNA 1: ACTGCCCTTACAGCACAGCGGTTTTT
DNA 2: CCGCTGTGCTGTAAGGGCAGT

Legend:
Assay in all cases: fluorescence polarization
Csm2;Psy3;Shu1;Shu2 [1] = biological target: T1, Csm2;Psy3;Shu1;Shu2
Csm2;Psy3 [2] = biological target: T2, Csm2;Psy3
Csm2;Psy3;Shu1;Shu2 [3] = biological target: T1, Csm2;Psy3;Shu1;Shu2; remark: listed apart in the source
Csm2;Psy3 [4] = biological target: T2, Csm2;Psy3; remark: listed apart in the source
Csm2;Psy3;Shu1;Shu2 [5] = biological target: T1, Csm2;Psy3;Shu1;Shu2; remark: listed apart in the source
Csm2;Psy3 [6] = biological target: T2, Csm2;Psy3; remark: listed apart in the source
Csm2;Psy3;Shu1;Shu2 [7] = biological target: T1, Csm2;Psy3;Shu1;Shu2; remark: listed apart in the source
Csm2;Psy3 [8] = biological target: T2, Csm2;Psy3; remark: listed apart in the source
Csm2;Psy3;Shu1;Shu2 [9] = biological target: T1, Csm2;Psy3;Shu1;Shu2; remark: listed apart in the source

Binder	Kd (Csm2;Psy3;Shu1;Shu2 [1])	Kd (Csm2;Psy3 [2])	Kd (Csm2;Psy3;Shu1;Shu2 [3])	Kd (Csm2;Psy3 [4])	Kd (Csm2;Psy3;Shu1;Shu2 [5])	Kd (Csm2;Psy3 [6])	Kd (Csm2;Psy3;Shu1;Shu2 [7])	Kd (Csm2;Psy3 [8])	Kd (Csm2;Psy3;Shu1;Shu2 [9])
B1	3540 ± 240 nM								
B2	5840 ± 320 nM								
B3	4500 ± 120 nM								
B4	3310 ± 70 nM								
B5	2060 ± 130 nM	1350 ± 60 nM	860 ± 70 nM	740 ± 50 nM	1030 ± 120 nM	750 ± 70 nM	970 ± 100 nM	780 ± 50 nM	
B6		1490 ± 130 nM	6850 ± 490 nM	1540 ± 80 nM	7410 ± 610 nM	1450 ± 130 nM	5800 ± 400 nM	1460 ± 120 nM	7400 ± 510 nM
B7	2440 ± 200 nM	1180 ± 100 nM	1580 ± 160 nM	430 ± 70 nM	1150 ± 110 nM	950 ± 120 nM	2420 ± 220 nM	760 ± 90 nM	
B8	2760 ± 80 nM	1650 ± 180 nM	3190 ± 270 nM	1490 ± 180 nM	2770 ± 250 nM	1320 ± 120 nM	2370 ± 220 nM	1980 ± 200 nM	
B9	2820 ± 190 nM	1920 ± 280 nM	2530 ± 170 nM	1600 ± 130 nM		1270 ± 120 nM	2710 ± 220 nM	680 ± 50 nM	
B10	6210 ± 190 nM								
B11	3430 ± 160 nM								
B12	2370 ± 130 nM		2400 ± 230 nM		2370 ± 290 nM		2010 ± 260 nM		
B13	4080 ± 190 nM								
B14	7230 ± 140 nM								
B15	4860 ± 280 nM								

Reference: publication doi:10.1101/2024.04.22.590616
